Assays:
[1] = molecular target: T1, human VEGFA165 (human, UniProt P15692 207-395); test: cell-based or functional assay
[2] = molecular target: T1, human VEGFA165; test: KinExA kinetic exclusion assay at 25 C, solution equilibrium with hVEGFA165
From the text: (§1) A KinExA 3200 instrument is used to measure binding kinetics to human VEGFA165. Briefly, human VEGFA165 is covalently coupled to NHS-activated sepharose beads (GE Healthcare #17-0906-01) and the binding of free Mab to the conjugated beads is detected on the KinExA 3200. […] (depending on the temperature analyzed) in Casein Blocking Buffer (ThermoFisher #37528). […] It follows that the relative intensity of signal generated in these steps is proportional to the degree of free/uncomplexed compound present in each solution tested. The resultant composite set of fluorescent intensities is plotted as a function of the concentration of human VEGFA165 present in each discrete sample and fit using the N-curve analysis software (KinExA) to a standard two state binding model to determine KD for the given MOI. Statistical confidence is reported by calculation of the 95% confidence intervals.

[3] = molecular target: T1, human VEGFA165; test: Biacore SPR at 25 C; antibody captured on Protein A, hVEGFA165 as analyte; 1:1 fit
Procedure: (§2) Immobilization of soluble Protein A (Calbiochem #539202) on a CM4 (GE Healthcare #BR-1005-34) or CMS (GE Healthcare #BR-1000-99) is prepared using EDC/NHS amine coupling method (GE Healthcare #BR-1000-50). Briefly, the surfaces of all four flow cells is activated by injecting a 1:1 mixture of EDC/NHS for seven minutes at 10 μL/min After which, soluble protein A is diluted to 50-100 μg/mL in 10 mM acetate buffer, pH 4.5, and immobilized for seven minutes onto flow cell (Fc) 2, 3 or 4 at a flow rate of 10 μL/min. Unreacted sites still remaining on the chip surface are blocked with a seven minute injection of ethanolamine at 10 μL/min Running buffer is HBS-EP+ (GE Healthcare #BR-1006-69) with addition of 100 mM NaCl. Compound samples are prepared at 1 μg/mL by dilution into running buffer. […] Resultant data is processed using standard double-referencing and fit to a 1:1 binding model using Biacore 2000 Evaluation software, version 4.1, to determine the association rate (kₒₙ, M⁻¹s⁻¹ units), dissociation rate (koff, s⁻¹ units). Calculation of the equilibrium dissociation constant (KD) is calculated from the following relationship, KD=koff/kₒₙ, and is presented in molar units.

[4] = molecular target: T1, human VEGFA165; test: KinExA kinetic exclusion assay at 37 C, solution equilibrium with hVEGFA165
From the text: as §1

[5] = molecular target: T1, human VEGFA165; test: Biacore SPR at 25 C; antibody captured on Protein A, hVEGFA165 as analyte; 1:1 fit; off-rate too slow to quantitate accurately
Procedure: as §2

[6] = molecular target: T1, human VEGFA165; test: Biacore SPR at 25 C; antibody captured on Protein A, hVEGFA165 as analyte; value called an upper limit
Procedure: as §2

T1 sequence (P15692 other isoform, or with tags, fused parts or gaps): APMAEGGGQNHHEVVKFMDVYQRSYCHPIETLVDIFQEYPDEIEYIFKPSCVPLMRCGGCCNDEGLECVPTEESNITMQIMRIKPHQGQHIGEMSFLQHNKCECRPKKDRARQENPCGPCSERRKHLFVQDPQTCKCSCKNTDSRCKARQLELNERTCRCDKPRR

IC50 for inhibition of VEGFA165 induced proliferation of ECFC (3H thymidine) [1]: 1.38 nM
IC50 for inhibition of VEGFA induced cord formation in ADSC/ECFC co-culture (total tube area) [1]: 1.57 nM
Kd [2]: 0.027 nM
kon [3]: 2.93e+06 M⁻¹ s⁻¹
Kd [4]: 0.183 nM
koff [5]: 3.9e-05 s⁻¹
Kd [6]: ≤ 0.0132 nM
B1: parental anti-VEGFA antibody of Compound A (antibody, human IgG4 S228P, kappa, F234A L235A, V domains shown)
VH: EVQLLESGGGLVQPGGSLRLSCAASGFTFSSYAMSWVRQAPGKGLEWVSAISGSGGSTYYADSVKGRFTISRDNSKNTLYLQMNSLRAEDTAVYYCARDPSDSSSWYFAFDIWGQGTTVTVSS
VL: DIVMTQSPATLSVSPGQRATLSCRASQNIRNNLAWYQQKRGQAPRLLIYGASTRATGIPDRFSGSGSGADFTLTISKLEPEDFAVYYCQQYGSSPRTFGQGTKVDIKR
notes: also called Parental VEGFA Ab; parental VEGFA antibody
